Experiment: yeast display, Sf9 membrane polyspecificity reagent, FACS + sequencing; frameworks hold sequencing errors
Outline: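 Synthetic nanobody libraries on Saccharomyces cerevisiae BJ5465 were galactose-induced for 36–48 hours, stained 1 hour at 4 °C with 10% biotinylated, detergent-solubilized Sf9 membrane reagent and enriched on streptavidin microbeads. FACS then separated cells into low and high (top ~1%) gates by anti-HA (expression) and streptavidin (reagent binding) fluorescence. Genes were colony-PCR amplified, MiSeq 2 × 250 sequenced and CDR-length filtered. A clone's polyreactivity label is that of its gate of origin.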
In the case of “QVQLVESGGGLVQAGGSLRLSCAASGRTFQKNTMGWYRQAPGKERELVAAIDYSATTTYYADSVKGRFTSSRDNAKNTVYLQMNSLKPEDTAVYYCAARWSYPRWEFDYWGQGTQVTVSS”, the “polyreactivity (PSR sort gate)” value is reported as “high polyreactivity”.
For “QVQLVESGGGLVQAGGSLRLSCAASGRTFQKYVMGWYRQEPGKEREIVAAISGGGGRTYYADSVKGRFTISRDNAKNTVYLQMNSLKPEDTAVYYCAARGLGKELDRFYYWGQGTQVTVSS”, the “polyreactivity (PSR sort gate)” value was “high polyreactivity”.
With “QVQLVESGGGLVQAGGSLRLSCAASGRTFQNNAMGWYRQAPGKERELVAAISRSGASTYYADSVKGRFTISRDNAKNTVYLQMNSLKPEDTAVYYCAARYQRTAYDYWGQGTQVTVSS” the “polyreactivity (PSR sort gate)” value was “low polyreactivity”.
With “QVQLVESGGGLVQAGGSLRLSCAASGRTFQPYAMGWYRQAPGKERELVAAITSIGGSTFYADSVKGRFTISRDNAKNTVYLQMNSLKPEDTAVYYCARRGYYRSIWERDYWGQGTQVTVSS” the “polyreactivity (PSR sort gate)” value was “low polyreactivity”.
For “QVQLVESGGGLVQAGGSLRLSCAASGRTFQQNAMGWYRQAPGKERELVAAINSRGGRTYYADSVKGRFTISRDYAKNTVYLQMNSLKPEDTAVYYCAARYYWGQGTQVTVSS”, the “polyreactivity (PSR sort gate)” value was “high polyreactivity”.
In the case of “QVQLVESGGGLVQAGGSLRLSCAASGRTFQRNAMGLYRQEPGKERELVAAISTRGGSTYYADSVKGRFTISRDNAKNTVYLQMNSLKPEDTAVYYCAKDPTLTRGYKEGGGYDYLGQGTQVTVSS”, the “polyreactivity (PSR sort gate)” value is reported as “high polyreactivity”.
With “QVQLVESGGGLVQAGGSLRLSCAASGRTFQVYAMGWYRQAPGKERELVAAISSSGGITYYADSVKGRFTISRDNAKNTVYLQMNSLKPEDTAVYYCNTLYVSSNEYWGQGTQVTVSS” the “polyreactivity (PSR sort gate)” value was “high polyreactivity”.
For “QVQLVESGGGLVQAGGSLRLSCAASGRTFQWYTMGWYRQAPGKERELVAAISWSGTSTYYADSVKGRFTISRDIAKNTVYLQMNILNPEDTAVYYCAAEVIGRYYRLDYWGQGPQVTVSS”, the “polyreactivity (PSR sort gate)” value was “low polyreactivity”.
In the case of “QVQLVESGGGLVQAGGSLRLSCAASGRTFQWYTMGWYRQAPGKERELVAGISWRGGSTYYADSVKGRFTISRDNAKNTVYLQMNSLKPEDTAVYYCAALASRLTGRDYWGQGTQVTVSS”, the “polyreactivity (PSR sort gate)” value is reported as “high polyreactivity”.
In the case of “QVQLVESGGGLVQAGGSLRLSCAASGRTFQYNAMGWYRQAPGKERELVAAISWSGGSTYYADSVKGRFTISRDNAKNTVYLQMNSLKPEDTAVYYCNARTLFKWRHGHYYAYDYWGQGTQVTVSS”, the “polyreactivity (PSR sort gate)” value is reported as “high polyreactivity”.
In the case of “QVQLVESGGGLVQAGGSLRLSCAASGRTFQYYAMGWYRQAPGKERELVAAITSGGSTYYADSVKGRFTISRDNAKNTVYLQMNSLKPEDTAVYYCAATFYYSGHDDYWGQGTQVTVSS”, the “polyreactivity (PSR sort gate)” value is reported as “low polyreactivity”.
In the case of “QVQLVESGGGLVQAGGSLRLSCAASGRTFQYYAMGWYRQAPGKERELVAAITSGGSTYYADSVKGRFTISRDNAKNTVYLQMNSLKTEDTAVYYCAADFLYYSSGGKMDYWGQGTQVTVSS”, the “polyreactivity (PSR sort gate)” value is reported as “low polyreactivity”.
With “QVQLVESGGGLVQAGGSLRLSCAASGRTFQYYAMGWYRQAPGKERELVARINRSGGSTYYADSVKGRFTISRDNAKNTVYLQMNSLKPEDTAVYYCAADYLSRSPAYEHYYWGQGTQVTVSS” the “polyreactivity (PSR sort gate)” value was “high polyreactivity”.
In the case of “QVQLVESGGGLVQAGGSLRLSCAASGRTFQYYTMGWYRQAPGKERELVAAITWRGGTTYYADSVKGRFTISRDNAKNTVYLQMNSLKPEDTAVYYCAAYSPDYGFDYWGQGTQVTVSS”, the “polyreactivity (PSR sort gate)” value is reported as “high polyreactivity”.
With “QVQLVESGGGLVQAGGSLRLSCAASGRTFRANAMGWYRQAPGKERELVAAISQRGGNTYYADSVKGRFTISRDNAKNTVYLQMNSLKPEDTAVYYCAADITTYRRGRYEYEYWGQGTQVTVSS” the “polyreactivity (PSR sort gate)” value was “high polyreactivity”.
In the case of “QVQLVESGGGLVQAGGSLRLSCAASGRTFRANAMGWYRQAPGKERELVAAITWDGGSTYYADSVKGRFTISRDNAKNTVYLQMNSLKPEDTAVYYCNTDPYLWGQGTQVTVSS”, the “polyreactivity (PSR sort gate)” value is reported as “low polyreactivity”.
With “QVQLVESGGGLVQAGGSLRLSCAASGRTFRANTMGWYRQAPGKERELVAAINWSGGSTYYADSVKGRFTISRDNAKNTVYLQMNSLKPEDTAVYYCAKRVSVSYRKSTYDYWGQGTQVTVSS” the “polyreactivity (PSR sort gate)” value was “high polyreactivity”.
With “QVQLVESGGGLVQAGGSLRLSCAASGRTFRAYAMGWYRQAPGKERELVAAITSGGSTYADSVKGRFTISRDNAKNTVYLQMNSLKPEDTAVYYCAADGYKLFYSKFRYVQYGYWGQGTQVTVSS” the “polyreactivity (PSR sort gate)” value was “high polyreactivity”.
In the case of “QVQLVESGGGLVQAGGSLRLSCAASGRTFRAYAMGWYRQAPGKETELVASISRRGGSTYYADSVKGRFTISRDNAKNTVYLQMNSLKPEDSAVYYCAASDNYLQYDYWGQGTQVTVSS”, the “polyreactivity (PSR sort gate)” value is reported as “high polyreactivity”.
With “QVQLVESGGGLVQAGGSLRLSCAASGRTFRAYVMGWYRQAPGKERELVAAFTGDGGSTYYADSVKGRFTISRDNAKNTVYLQMNSLKPEDTAVYYCAAGYVTVYGYYEYWGQGTQVTVSS” the “polyreactivity (PSR sort gate)” value was “high polyreactivity”.
In the case of “QVQLVESGGGLVQAGGSLRLSCAASGRTFRDYTMGWYRQAPGNERELVAAITSTGDTNYADSVKGRFTISRDNAKNTVYLQMNSLKPEDTALNYCATQTGEEYQAPLIYDYWGQGTQVTVSS”, the “polyreactivity (PSR sort gate)” value is reported as “low polyreactivity”.
For “QVQLVESGGGLVQAGGSLRLSCAASGRTFRFNAMGWYRQAPGKESELVAAISSSGRTYYADSVKGRFTISRDNAKNTVYLQMNSLKPEDTAVYYCNKDPYLKLKMDYWGQGTQVTGSS”, the “polyreactivity (PSR sort gate)” value was “high polyreactivity”.
For “QVQLVESGGGLVQAGGSLRLSCAASGRTFRFYALGWYRQAPGKEREFVAAISRSVGSTYYADSVKGRFTISRDNAKHTVYLQMNSLKPEDTAVYYCAARVFRGLGEYYWGQGTQVTVSS”, the “polyreactivity (PSR sort gate)” value was “high polyreactivity”.
With “QVQLVESGGGLVQAGGSLRLSCAASGRTFRFYAMGWYRQAPGKERELVAAISASGGGTYYADSVKGRFTISRDNAKHTVYLQMNCLKPEDTAVYYCATRRSYKYYWGQGTQVTVSS” the “polyreactivity (PSR sort gate)” value was “high polyreactivity”.
In the case of “QVQLVESGGGLVQAGGSLRLSCAASGRTFRGNAMGWYRQAPGKERELVATITFSGGSTYYADSVKWRFTISRDNAKNTVYLQMNSLKPEDTAVYYCAVRGLHLVWVPFGYDYWGQGTQVTVSS”, the “polyreactivity (PSR sort gate)” value is reported as “low polyreactivity”.
In the case of “QVQLVESGGGLVQAGGSLRLSCAASGRTFRGYAMGWYRQAPGKEREFVAAITWTSGSTYYADSVKGRFTISRDNAKNTVYLQMNSLKPEDTAVYYCAARVYSQALRLWGNNYWGQGTQVTVSS”, the “polyreactivity (PSR sort gate)” value is reported as “high polyreactivity”.
For “QVQLVESGGGLVQAGGSLRLSCAASGRTFRGYAMGWYRQAPGKERELVAAITSGGSTNYADSVKGRFTISRDNAKNTVYLQMNSLKPEDTAVYYCAAGRSTGQYRYYYWGQGTQVTVSS”, the “polyreactivity (PSR sort gate)” value was “high polyreactivity”.
With “QVQLVESGGGLVQAGGSLRLSCAASGRTFRGYAMGWYRQAPGKERELVAAITWSGGRTYYADSVKGRFTISRDNAKNTVYLQMNSLKPEDTAVYYCATSPGRWGWGYDYEYWGQGTQVTVSS” the “polyreactivity (PSR sort gate)” value was “low polyreactivity”.
With “QVQLVESGGGLVQAGGSLRLSCAASGRTFRGYSMGWYRQAPGKERELVAAISTNGGSTRYADSVKGRFTISRDNSKNTVYLQMNSLKPEDTAVYYCARRDYWGQGTQVTVSS” the “polyreactivity (PSR sort gate)” value was “high polyreactivity”.
In the case of “QVQLVESGGGLVQAGGSLRLSCAASGRTFRHNALGWYRQAPGKERELVAAISKSGGRTYYADSVKGRFTISRDNAKNTVYLQMNSLKPEDTAVYYCAAPLYVSTSGEVGYWGQGTQVTVSS”, the “polyreactivity (PSR sort gate)” value is reported as “high polyreactivity”.
For “QVQLVESGGGLVQAGGSLRLSCAASGRTFRINAMGWYRQAPGKERELVAAINDGGDTYADSVKGRFTISRDNANNTVYLQMNSLKPEDTAVYYCAAPLGGGARWGRWWLYDSWGQGTQVTVSS”, the “polyreactivity (PSR sort gate)” value was “low polyreactivity”.
With “QVQLVESGGGLVQAGGSLRLSCAASGRTFRINAMGWYRQAPGKERELVAAITRGDTNYADSVKGRFTISRDNAKNTVYLQMNSLKPEDTAVYYCNADLSVRYPVFRELDYWGQGTQVTVSS” the “polyreactivity (PSR sort gate)” value was “low polyreactivity”.
For “QVQLVESGGGLVQAGGSLRLSCAASGRTFRIYAMGWYLQAPGKERELVAPISGRGGNTYYADSVKGRFTISRDNAKNTVYLHMNSLKPEDTAVYYCAADDATAYRVDGFKYDYWGQGTLVTVSS”, the “polyreactivity (PSR sort gate)” value was “high polyreactivity”.
In the case of “QVQLVESGGGLVQAGGSLRLSCAASGRTFRIYAMGWYRQAPGKERELVAAIRWSGGTTYYADSVKGGFTISRDNAKNTVYLQMNSLNPDDTAVYYCAADSTNRYDYWGQGTQVTVSS”, the “polyreactivity (PSR sort gate)” value is reported as “high polyreactivity”.
In the case of “QVQLVESGGGLVQAGGSLRLSCAASGRTFRKNTMGWYRQAPGKEREFVATISSRGGSTFYADSVKGRFTISRDNAKNTVYLQMNSLKPEDTAVYYCNAVYRYSLKPIYDYWGQGTQVTVSS”, the “polyreactivity (PSR sort gate)” value is reported as “high polyreactivity”.
In the case of “QVQLVESGGGLVQAGGSLRLSCAASGRTFRKYAMGGYRHAPGKEREFVASITWSGGSTYYADSVKGRFTISRDNAKNTVYLQMNSLKPEDTAVYFCAAESWFKYVYWGQGTQVTVSS”, the “polyreactivity (PSR sort gate)” value is reported as “low polyreactivity”.
For “QVQLVESGGGLVQAGGSLRLSCAASGRTFRKYAMGWYRQAPGKERELVAAINRGGTTKYADSVKGRFTISRDNAKNTVYLEMNSLKPEDTAVYYCAVDRQRAGYPKQYDSWGQGTQVTVSS”, the “polyreactivity (PSR sort gate)” value was “low polyreactivity”.
For “QVQLVESGGGLVQAGGSLRLSCAASGRTFRKYTMGWYRQAPGKERELVAASASRGGSTYYADSVKGRFTISRDNAKNTVYLQMNSLKPEDTAVYYCATDYITPSSDGDYWGQGTQVTVSS”, the “polyreactivity (PSR sort gate)” value was “high polyreactivity”.
In the case of “QVQLVESGGGLVQAGGSLRLSCAASGRTFRLYAMGWYRQAPGKERELVAAITRGGRTNYADSVKGRFTISRDNAKNTVYLQMYSLKPEDTAVYYCARDFVAYGDDYWGQGTQVTVSS”, the “polyreactivity (PSR sort gate)” value is reported as “low polyreactivity”.
With “QVQLVESGGGLVQAGGSLRLSCAASGRTFRLYAMGWYRQAPGKERELVARISRGGSTYYADSVKGRFTISRDNAKNTVYLQMNSLKPEDTAVYYCAAEGWGLSHRYDYWGQGTQVTVSS” the “polyreactivity (PSR sort gate)” value was “high polyreactivity”.
With “QVQLVESGGGLVQAGGSLRLSCAASGRTFRNYAMGWYRQAPGKERELVAAIRSGVRTYYADSVKGRFTISRDNAKNTVYLQMNSLKPEDTAVYYCAVATGLLYKSHGYWGQGTQVTVSS” the “polyreactivity (PSR sort gate)” value was “low polyreactivity”.
For “QVQLVESGGGLVQAGGSLRLSCAASGRTFRNYAMGWYRQAPGKERELVAAISSGGRTNYADSVKGRFTISRDNAKNTVYLQMNSLKPEDTADYYCAVRRGAFSTYPGYNYWGQGTQVTVSS”, the “polyreactivity (PSR sort gate)” value was “high polyreactivity”.
With “QVQLVESGGGLVQAGGSLRLSCAASGRTFRNYAMGWYRQAPGKERELVAGITSGGSTNYADSVKGRFTISRDNAKNTVYLQMNSLKPEDTAVYYCNAVRPFYWFWYYGYWGQGTQVTVSS” the “polyreactivity (PSR sort gate)” value was “low polyreactivity”.
